In the supplement of paper PMC9170038:

System: MS2 coat protein
Test: apparent KD of MS2 coat protein; higher = weaker reporter binding
Conditions: Eterna round: R107
In short: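 In 100 mM Tris-HCl pH 7.5 with 80 mM KCl and 4 mM MgCl2, and without or with constant ligand, SNAP-549-labelled MS2 coat protein was titrated in twofold steps from 0.7 or 1.5 nM to 3 µM. Per-step times went from 0.8–1.5 h down to 10–20 min. The RNA switches were transcribed on-chip from Illumina sequencing clusters, and apparent KD is the per-design median of normalised cluster binding-curve fits.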

[1] = input ligand: theophylline 20 uM
[2] = input ligand: tryptophan 2.4 mM
[3] = input ligand: theophylline 2 mM

| Sequence | apparent KD of MS2 coat protein (input ligand: arginine 13.2 mM) [nM] | apparent KD of MS2 coat protein [1] [nM] | apparent KD of MS2 coat protein [2] [nM] | apparent KD of MS2 coat protein (input ligand: none) [nM] | apparent KD of MS2 coat protein [3] [nM] |
| --- | --- | --- | --- | --- | --- |
| CGGUUUGUGAUGGAUACCAGCAGAGAAAACGUUUAUCCUAACAUGAGGAUCACCCAUGUAUGCCCUUGGCAGCUGUUGUGGGCUG [8.U] | 34.5 | 60.3 | 43.5 | – | – |
| CGGUUUGUGAUGGAUACCAGCAGAGAAAAUGUUUAUCCUGACAUGAGGAUCACCCAUGUGUGCCCUUGGCAGCUGUUGUGGGCUG [8.X] | 57.3 | 85.7 | 51.1 | – | – |
| CGUAAACAUGAGGAUCACCCAUGUGAUGAUACCAGCACGAUUAACUGCCCUUGGCAGCAUGUAUUGUACGACUUAUUGCCCAUCG [theeternabot_sameState_MS2_Theo_A_15] | 15.4 | 23.3 | 13.5 | – | – |
| CGUGUGCGUUCUGAUACCAGAGACAUGAGGAUCACCCAUGUCCGAUCGUCCUGCCUCAGACUCCCUUGGCAGCAGGUUUUGUGCU [Exclusion Theophylline B GF4] | 29.5 | 56.7 | 50.2 | – | – |
| CUAUUGAUAGCGGCCGCCACUUACUCAUGAGGUAACAACAUGAGGAUCACCCAUGUUUGAGGAUCAAGGACCGGGCUAUUGAUAG [AstrosSSTryB#13] | 30 | 33.9 | 23.8 | 27.6 | 30.9 |
| CUAUUUAUAGCGGCCGCCACUUACUCAUGAGGUAACAACAUGAGGAUCACCCAUGUUUGAGGAUCAAGGACCGGGCUAUGGAUAG [AstrosSSTryB#12] | 24.5 | 37 | – | – | 31.5 |
| CUCCCGUGGUCGGCCGCCACUGGAGGCCUUGCGCGACAUGAGGAUCACCCAUGUGUGCCCGGCGUCAGGACCGGGAUCGCGUGAG [#1 Same State - Tryptophan B Attempt #12 (HarryS)] | 17.2 | 18.7 | 13.8 | 16.1 | 19.7 |
| CUCCGAGGCUAUACUAUACGCCUUUGUGAUACCAGAAUAAAUAUAUUCCCUUGGCAGCAUCACAUGAGGAUCACCCAUGUGCCAU [SSTheo A #12] | 15.7 | 27.7 | 12.4 | – | – |
| CUCGAGUUAUGAGAUACCAGACUAUAGUUUACAUGAGGAUCACCCAUGUUAUGGGUGGUAGUCCCUUGGCAGCUCAUAUGUUUAA [#06 Exclusion-TheophyllineB] | 210 | 274 | 305 | – | – |
| CUCUGAGUGAGUAAUCACUCAGAGGCGGAUACCAGCGAGGUCCAUCGCCCUUGGCAGCCGAACAUGAGGAUCACCCAUGUCGGUA [#1 Same State - Theophylline A Attempt #24 (HarryS)] | 8.82 | 12.2 | 11.7 | – | – |
| CUGCCAUGCAGAGAUACCAGUGAGCUCAAAACAUGAGGAUCACCCAUGUAAAUUGCCGAUCACCCUUGGCAGCUCUGCAUGGCAG [}=%#^] | 13.7 | 10.3 | 9.55 | – | – |
| CUUAUACAUGAGGAUCACCCAUGUGGUGAUACCAGCCACGAUCAAGGCCCUUGGCAGCACAAAGGGAAUAAUAUGAUUACAAAAC [theeternabot_sameState_MS2_Theo_A_6] | 117 | 566 | 489 | – | – |
| CUUCUGAAAGCAAUGGGAUCUGUUAUUGAUACCAGCAUCUGAUUUUGCCCUUGGCAGCAAGAAACAUGAGGAUCACCCAUGUGGC [theeternabot_exclusion_MS2_Theo_A_19] | 21.4 | 23.1 | 21 | – | – |
| CUUGUGCUGACGGCCGCCACUUUAUGGGAGUCCUGUUCUGAUUGAUACAUGAGGAUCACCCAUGUAAGGACCGGGUCGUACCAUA [theeternabot_exclusion_MS2_Trp_B_22] | 22.7 | 27.4 | – | – | 22.7 |
| CUUGUGGGCGGAAGGAGCGCGAUUACAUAACAUGAGGAUCACCCAUGUAAGAAAUUAUUCAUGCAGGUAGGUCGCCGUUCGUGGG [Same State Arginine B GF9] | 24.8 | 30.9 | 25.2 | 23.8 | 24.1 |
| GACAUGAGGAUCACCCAUGUACCGCGAGAAGGAGCGCGGAUAAACGCAGGUAGGUCGCUCGUGGGCUUGUAUUCAAUCGUAAGCU [Anlaaranan] | 48.2 | 187 | 80.7 | 108 | 207 |
| GACAUGAGGAUCACCCAUGUUGACUAUGAAGGAGCGUCGGAAAUGACAGGUAGGUCGCAUAGUCGACCUUGUAUUUUGUGUGUUU [EAA #9] | 12.7 | 17.4 | 11.6 | 10.4 | 12.5 |
| GACCACAUGAGGAUCACCCAUGUCUUGGUCCGAGGACCGGUACGGCCGCCACUCGAGAGCCGUACAAAUAAACGGAGUGCCAUCA [theeternabot_sameState_MS2_Trp_A_31] | 12.5 | 19.6 | – | – | 15.5 |

| Sequence | apparent KD of MS2 coat protein (input ligand: arginine 13.2 mM) [nM] | apparent KD of MS2 coat protein [1] [nM] | apparent KD of MS2 coat protein [2] [nM] | apparent KD of MS2 coat protein (input ligand: none) [nM] | apparent KD of MS2 coat protein [3] [nM] |
| --- | --- | --- | --- | --- | --- |
| GACCCAUGAGUUGUAAAAGCUCAUGGGUCGCGAGGACCGGUACGGCCGCCACUCGGCUGUACAUGAGGAUCACCCAUGUCAGGGU [#1 Same State - Tryptophan A Attempt #27 (HarryS)] | 44.8 | 568 | – | – | 527 |
| GAGCUGAUGUAGAGCGAAUAUUCGAGAGAUACCAGUACAGAAAUGUACCCUUGGCAGCUCAACUUUACAUGAGGAUCACCCAUGU [Ex Theophylline A 23] | 15 | 15.6 | 14.7 | – | – |
| GAGUACACUACGGCCGCCACUCAAGGAGCUACAUAGCUCCUAGACAUGAGGAUCACCCAUGUACCGAGGACCGGGUAGAUCCUUA [Same State Typrtophan B GF2] | 129 | 246 | – | – | 294 |
| GAUGAUAUUGCAGAUACCAGACACAUGAGGAUCACCCAUGUGUCCUCGCCAGCGGCAUGUGUCCCUUGGCAGCUGCGAUAUCAUC [Colombia] | 11.1 | 17.7 | 12.1 | 11.1 | 41.2 |
| GAUUUAACAAAAGUUAGAUCAGUGGGUGAACGAGGACCGGUACGGCCGCCACUCGGACAUGAGGAUCACCCAUGUCCAUGUGAAA [AstrosExyTryA#20] | 15.3 | 19.4 | – | – | 18.6 |
| GCACAUGAGGAUCACCCAUGUACAACUGAAGGAGCGAGACAGAACUCAGGUAGGUCGCAGAAUGCACAAUAGCAUACGACAUGGG [Exclusion Arginine A GF20] | 20.2 | 52.1 | 24.2 | 20.8 | 23.8 |
| GCACCAGGUACGGAUACCAGACAUUGCCAAUUGGGUGAACAUGAGGAUCACCCAUGUUAAGUCCCUUGGCAGCCGUACCUGGUGC [ETB NP+V+V2 #6 Same Structure] | 11.4 | 17.7 | 11.5 | 10.6 | 178 |
| GCACCAGGUACGGAUACCAGACUCUGCCGAUUGGGUGAACAUGAGGAUCACCCAUGUUAGGUCCCUUGGCAGCCGUACCUGGUGC [#18 Exclusion-TheophyllineB] | 26.4 | 73.5 | 30.3 | – | – |
| GCACCAGGUACGGAUACCAGCUAUAGGCCCUAUGGGCGACAUGAGGAUCACCCAUGUAAUGGCCCUUGGCAGCUGUACCUGGUGC [SSThB NP+V+V2 #10 +-Same Structure] | 120 | 97.3 | 169 | – | – |
| GCACCAGGUACGGAUACCAGCUGCCAGCGUUACAUGAGGAUCACCCAUGUGAUCUGAUAUAGCCCUUGGCAGCUGUACCUGGUGC [SSThB NP+V+V2 #3 +-Same Structure] | 43.4 | 416 | 49.6 | – | – |
| GCACUACAUGAGGAUCACCCAUGUGCAGAUACCAGAGGUGUAUGCCUCCCUUGGCAGCUGCGUCGCUCUGGCAGCUUGUGGGUUG [Same State Theophylline A GF18] | 40.3 | 117 | 81.5 | – | – |
| GCCGGGCCCUCGGCCGCCACUGAGAGAGUCGUGUGAACAUGAGGAUCACCCAUGUAAUAUAUAUACAGGACCGGGAGGGCCCGGC [4.W] | 11.9 | 21.8 | 11.9 | 13.3 | 13.9 |
| GCCUGGGAUACGGCCGCCACUACAUGAGGAUCACCCAUGUAAUAUUUAUUAGAAGAGAGGGUAUGUAGGACCGGGUAAGGAAGGC [e-trypB-0] | 14.3 | 24.9 | 26 | 15.8 | 22.5 |
| GCGGUCGGAGUGCGGCGUGUUCCGCUCCGUCGAGGACCGGUACGGCCGCCACUCGACAUGAGGAUCACCCAUGUCCGACCGCGCG [#1 Exclusion - Tryptophan A Attempt #5 (HarryS)] | 18.4 | 66.5 | 6.86 | 13.4 | 28.8 |
| GCGUGUUAUAGUCAUCGUGAGCGUCCAUCCCGAGGACCGGUACGGCCGCCACUCGCCACAGGACAUGAGGAUCACCCAUGUUAUG [theeternabot_exclusion_MS2_Trp_A_3] | 9.62 | 16.8 | – | – | 13.8 |
| GCUGCCAUACGAAGGAGCGCUGGUGUAAUGAGGCGAACAUGAGGAUCACCCAUGUGGCAGAAGCAGGUAGGUCGCGUAUGGCAGC [EAB #15] | 12.9 | 20.6 | 18.3 | 14.2 | 14.9 |
| GGAAGGACAGUUGAUACCAGUUUCAAAGGCGGUAAUCACUACAUGAGGAUCACCCAUGUCAACCCUUGGCAGCAAUAGACCGUGG [theeternabot_exclusion_MS2_Theo_B_6] | 24 | 28.1 | 19.2 | – | – |
| GGAAUAACGAUUGAUACCAGCAUGUUAACAUGAGGAUCACCCAUGUUAAGGAUAACAUAAUGCCCUUGGCAGCAACGGAAACCCG [#23Same State - Theophylline B] | 16.3 | 19.2 | 17.8 | – | – |
